Data reported in publication doi:10.1101/2023.01.20.524915 (bioRxiv, 2023).

Target: the molecule itself
Experiment: cryo-EM structure

B1: human DNA polymerase theta helicase domain (Polθ-HLD), residues 67-940 (domain or fragment, UniProt O75417 67-940, looked up)
chain: DKLLLANWGLPKAVLEKYHSFGVKKMFEWQAECLLLGQVLEGKNLVYSAPTSAGKTLVAELLILKRVLEMRKKALFILPFVSVAKEKKYYLQSLFQEVGIKVDGYMGSTSPSRHFSSLDIAVCTIERANGLINRLIEENKMDLLGMVVVDELHMLGDSHRGYLLELLLTKICYITRKSASCQADLASSLSNAVQIVGMSATLPNLELVASWLNAELYHTDFRPVPLLESVKVGNSIYDSSMKLVREFEPMLQVKGDEDHVVSLCYETICDNHSVLLFCPSKKWCEKLADIIAREFYNLHHQAEGLVKPSECPPVILEQKELLEVMDQLRRLPSGLDSVLQKTVPWGVAFHHAGLTFEERDIIEGAFRQGLIRVLAATSTLSSGVNLPARRVIIRTPIFGGRPLDILTYKQMVGRAGRKGVDTVGESILICKNSEKSKGIALLQGSLKPVRSCLQRREGEEVTGSMIRAILEIIVGGVASTSQDMHTYAACTFLAASMKEGKQGIQRNQESVQLGAIEACVMWLLENEFIQSTEASDGTEGKVYHPTHLGSATLSSSLSPADTLDIFADLQRAMKGFVLENDLHILYLVTPMFEDWTTIDWYRFFCLWEKLPTSMKRVAELVGVEEGFLARCVKGKVVARTERQHRQMAIHKRFFTSLVLLDLISEVPLREINQKYGCNRGQIQSLQQSAAVYAGMITVFSNRLGWHNMELLLSQFQKRLTFGIQRELCDLVRVSLLNAQRARVLYASGFHTVADLARANIVEVEVILKNAVPFKSARKAVDEEEEAVEERRNMRTIWVTGRKGLTEREAAALIVEEARMILQQDLVEMGVQWNPCALLHSSTCSLTHSESEVKEHTFISQTKSSYKKLTSKNKS
  stoichiometry N: 2
